Experimental findings from patent US6287813 are described below.

This data set has as its target tTA (TetR-VP16) (/ Herpes simplex virus) (UniProt P04483). Kind of data set: cell_activity. The settings on record: CHO-TWIN195 without antibiotic; 8.57% with TET.

Chain of tTA (TetR-VP16) (/ Herpes simplex virus) (P04483 whole entry): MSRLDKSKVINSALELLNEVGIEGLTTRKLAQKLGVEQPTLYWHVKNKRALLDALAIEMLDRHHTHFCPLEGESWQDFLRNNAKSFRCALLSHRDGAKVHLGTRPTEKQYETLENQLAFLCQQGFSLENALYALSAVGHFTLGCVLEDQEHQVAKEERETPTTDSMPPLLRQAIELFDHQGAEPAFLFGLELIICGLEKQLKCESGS

As to PhCMV*-1 (tet-responsive promoter), the activity was 18.6 mU/ml SEAP.
